Among the data in publication PMC6761512, “Trypanosoma cruzi Phosphomannomutase and Guanosine Diphosphate-Mannose Pyrophosphorylase Ligandability Assessment” (Antimicrobial Agents and Chemotherapy, 2019) are Km values, retold here.

Substrate in data set [1]: O=C[C@@H](O)[C@@H](O)[C@H](O)[C@H](O)COP(=O)(O)O
Kind of data set: Km determination with the PMM-GDP-MP assay. The class given is biochemical, Trypanosoma cruzi. The note with it: other: PMM substrate and cofactor, mean of three independent replicates, pH 7.5. As for the experimental part:
(§1) All enzyme and substrate solution dilutions were prepared in assay buffer comprising 25 mM Tris-HCl (pH 7.5), 150 mM NaCl, 4 mM MgCl2, 0.01% (vol/vol) Tween 20, and 1 mM dithiothreitol in ultrapure water. Biochemical assays were performed in a 50-μl final assay volume using clear 384-well assay microplates (Greiner, catalog no. 781101) at room temperature. Unless stated otherwise, all reagent concentrations are written as final biochemical assay concentrations, and DMSO or compounds were added to assay plates using Echo acoustic dispensers (Labcyte). Reagent addition for high-throughput screening assays was performed using an Xrd-384 liquid dispenser (FluidX, UK) and a BioFill Solo/Xrd-384 16 channel resin nozzle (2.00 to 200 μl) tubing cartridge (FluidX, catalog no. 34-1005-S). Biochemical reactions were terminated by addition of 50 μl of BIOMOL Green (Enzo Life Sciences, catalog no. BML-AK111-1000) reagent, after which absorbance was measured following a 30-min incubation at room temperature. Absorbance measurements were performed at 650 nm using a PHERAStar microplate reader (BMG Labtech, Germany), and the data are represented as relative absorbance units (RAU). Linear and nonlinear regression was performed using the SigmaPlot 12.5 software, unless stated otherwise.
(§2) To measure the activity of the T. cruzi PMM enzyme, a PMM-GDP-MP biochemical assay system was used. […]

Substrate in data set [2]: O=P(O)(O)OC[C@H]1O[C@H](OP(=O)(O)O)[C@H](O)[C@@H](O)[C@@H]1O
Kind of data set: Km determination with the PMM-GDP-MP assay. Type of data set: biochemical, Trypanosoma cruzi. The note with it: other: PMM substrate and cofactor, mean of three independent replicates, pH 7.5. As for the experimental part:
as §1, §2

Substrate in data set [3]: Nc1nc2c(ncn2[C@@H]2O[C@H](COP(=O)(O)OP(=O)(O)OP(=O)(O)O)[C@@H](O)[C@H]2O)c(=O)[nH]1
The experiment in a line: Km determination with the GDP-MP assay. The note with it: other: GDP-MP substrates; mean of three independent replicates; pH 7.5. The class given is biochemical. As for the experimental part: as §1, with “otherwise. […]” for “otherwise.”

Substrate in data set [4]: O=P(O)(O)O[C@H]1O[C@H](CO)[C@@H](O)[C@H](O)[C@@H]1O
Kind of data set: Km determination with the GDP-MP assay. Type of data set: biochemical. The note with it: other: GDP-MP substrates; mean of three independent replicates; pH 7.5. As for the experimental part: as §1, with “otherwise. […]” for “otherwise.”

What is called Km is the substrate concentration at which the rate is half of its maximum.

B1: T. cruzi PMM enzyme (Trypanosoma cruzi strain CL Brener) (protein)
chain: MKKVLLLFDIDGTLTPPRLSQPDEVREVIRRAKSAGFTVGTVGGSDLAKQIEQLGEDVFQQFDYVFAENGLLAYKHGKEIHRQNLLKELGNERIVKFVRRALRLLSELDIPVQRGTFIEYRNGMINVCPIGRNCTQSERDEFEVYDKEHHVREKLIKELQNSFPDYGLKYSIGGQISFDVFPVGWDKSYCLRFVENDFDEIHFFGDKTHAGGNDYEIYTDKRIIGHAVKSYKDTVDEVNKLISSK
As to B1, the Km was 48.2 µM in data set [1] and 7.8 µM in data set [2].

B2: T. cruzi GDP-MP enzyme (Trypanosoma cruzi strain CL Brener) (protein)
chain: MSEEKKSVANSKGMRAVILVGGYGTRLRPLTLTMPKPLVPFCNKPIIVHQVEALRDAGVTEVILAVAYRSDAMRKNMDYWSKELGVSFVFSLEEEPLGTAGPLALARDILLQDDQPFFVLNADITCRFPLRELLSFHQKSGKEGTIAVTKVTDWQKYGVVVFDEATGVIDQFVEKPKNFVGDRINAGIYVFNKSVLNRIKVEKTSIETQVFPQMASAKQLCAFILEGFWMDIGVPKDYIEGVGKYLRSLNGTPKESQEVYGFGQAHKTDDFTVIGSVIIDPSAKIGKGCVIGPFATIGPGCVIGPTSRIRNSAILDESTIGKGTLVDSSIIGWKSRVGSWCRVVNNTVLGEDVEVKDELFLNGIKVLPNKSILQSYHEPEVVM
For B2, the figures for the Km in data set [3] and in data set [4] were 40.7 µM and 13.3 µM, respectively.
